According to patent US20240075068A1 (GADETA B V, published 2024):

Experiments:
[1] = target: T1, endothelial protein C receptor (EPCR) on HT-29 cells (UniProt Q9UNN8 18-238, limits assumed); experiment: flow cytometry on HT-29 cells (wild-type, EPCR-enhanced, EPCR KO), streptavidin-A647 detection
T1 construct: whole, on cells; The description says 'preferably human EPCR'; HT-29 is a human cell line; also called recognised target; target antigen
T1 sequence (looked up): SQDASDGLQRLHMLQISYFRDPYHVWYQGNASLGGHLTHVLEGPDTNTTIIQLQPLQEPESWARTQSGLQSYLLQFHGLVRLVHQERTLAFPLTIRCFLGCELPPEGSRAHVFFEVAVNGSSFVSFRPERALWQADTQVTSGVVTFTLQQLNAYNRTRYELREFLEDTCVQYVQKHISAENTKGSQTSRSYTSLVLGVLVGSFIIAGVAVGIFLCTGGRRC
Procedure: Target cells mock treated with PBS served as control binding (FIG. 15A). […] Mock treated and unstained target cells served as controls. Data was analysed with flowjo and shown as histograms.
(§1) Trypsinized HT-29 target cells seeded in 96-well round bottom-plates were incubated for 2 hours at 37° C. to recover cell surface expression molecules. […] Unbound sTCR/TCR-CD3 bispecific engager was washed. Bound sTCR or TCR-CD3 bispecific engager was stained respectively with streptavidin-labelled A647 (BioLegend, CA, USA) or anti-His-APC (BioLegend). Staining was determined with FACS flow cytometry was results were analyzed with Flowjo software.
The soluble γδTCRs were used to assess specific binding to HT-29 cells, HT-29 knocked out (KO) for the expressed target (EPCR) or HT-29 cells with ectopic target expression. Bound soluble γδTCRs were targeted with a secondary streptavidin A647-labelled antibody that could be detected with FACS flow cytometry.

[2] = target: T1, endothelial protein C receptor (EPCR) …; experiment: flow cytometry on HT-29 cells (wild-type, EPCR ectopic, EPCR KO), anti-His-APC detection
Procedure: PBS-mock treated (secondary only) or unstained target cells served as controls. Data was analysed with flowjo and shown as histograms.
as §1
The γδTCR-CD3 bispecific engagers were used in binding experiments utilizing HT-29 cells, HT-29 with the target antigen (EPCR) knocked out (KO) or with ectopic expression of the target. Bound γδTCR-CD3 bispecific engagers were targeted with an anti-His-APC-labelled secondary antibody that could be detected with FACS flow cytometry.

[3] = target: Endothelial protein C receptor (EPCR) peptide on (human); experiment: TEG library γ-random/δ-random, 16 h with Luc-Tom HT-29 (cells that express the antigen), E:T 1:3; CD69/CD107a sort, NGS read ratio; Fig. 9; full-length, on cells; conditions: chains Vgamma:Vdelta

B1: sE57 G2/D1 soluble γδTCR (affinity decreased variant, without cysteine) (TCR, V domains shown)
V domain 1: SSNLEGRTKSVIRQTGSSAEITCDLAEGSTGYIHWYLHQEGKAPQRLLYYDSYTSSVVLESGISPGKYDTYGSTRKNLRMILRNLIENDSGVYYCATWDGYKKLFGSGTTLVVTD
V domain 2: DQQVKQNSPSLSVQEGRISILNCDYTNSMFDYFLWYKKYPAEGPTFLISISSIKDKNEDGRFTVFLNKSAKHLSLHIVPSQPGDSAVYFCAASSPIRGYTSGSDKLIFGKGTRVTVEP
modifications: biotinylated via Avi-tag (BirA co-transfection in the presence of biotin)
notes: also called G2/D1 variant
[1]
  binding result: no binding (tested: 10 µg)

B2: soluble γδTCR-CD3 bispecific engager comprising the G2/D1 variant regions (TCR, V domains shown)
V domain 1: B1 V domain 1
V domain 2: B1 V domain 2
notes: This is a TCR-scFv fusion; also called G2/D1 γδTCR-CD3 bispecific engager; G2D1 γδTCR-CD3 bispecific engager
[2]
  binding result: no binding (tested: 5 µg)

B3: E57 G7/D5 (protein)
chain 1: SSNLEGRTKSVIRQTGSSAEITCDLAEGSTGYIHWYLHQEGKAPQRLLYYDSYTSSVVLESGISPGKYDTYGSTRKNLRMILRNLIENDSGVYYCATWEAFYYKKLFGSGTTLVVT
chain 2: DQQVKQNSPSLSVQEGRISILNCDYTNSMFDYFLWYKKYPAEGPTFLISISSIKDKNEDGRFTVFLNKSAKHLSLHIVPSQPGDSAVYFCAASSPIKGYTGSDKLIFGKGTRVTVEP
[3]
  enrichment of CD69+/CD107a+ over CD69-/CD107a- reads: > 170%
